From patent publication US20170226167A1
Where no end group is shown, it is not given here. [ ]: non-standard residue; d: D form. Met(O) = CS(=O)CC[C@H](N)C(=O)O; pS = N[C@@H](COP(=O)(O)O)C(=O)O

Legend:
[1] = molecular target: Recombinant bovine HSC70 (Stressgen) (bovine) (UniProt P19120); assay: SPR (BIAcore 3000), bovine HSC70 immobilized, peptide at 3.12 µM, 1:1 Langmuir fit
[2] = molecular target: Recombinant bovine HSC70 (Stressgen) (bovine) (UniProt P19120); assay: SPR (BIAcore 3000), bovine HSC70 immobilized, peptide at 1.56 µM, 1:1 Langmuir fit
[3] = molecular target: Recombinant bovine HSC70 (Stressgen) (bovine) (UniProt P19120); assay: SPR (BIAcore 3000), bovine HSC70 immobilized, peptide at 25 µM, 1:1 Langmuir fit
[4] = molecular target: Recombinant bovine HSC70 (Stressgen) (bovine) (UniProt P19120); assay: SPR (BIAcore 3000), bovine HSC70 immobilized, peptide at 12.5 µM, 1:1 Langmuir fit
[5] = molecular target: Recombinant bovine HSC70 (Stressgen) (bovine) (UniProt P19120); assay: SPR (BIAcore 3000), bovine HSC70 immobilized, peptide at 6.25 µM, 1:1 Langmuir fit
[6] = molecular target: Recombinant bovine HSC70 (Stressgen) (bovine) (UniProt P19120); assay: SPR (BIAcore 3000), bovine HSC70 immobilized, peptide as analyte, 1:1 Langmuir fit, 25 C

Recombinant bovine HSC70 (Stressgen) (bovine), sequence (P19120 whole entry): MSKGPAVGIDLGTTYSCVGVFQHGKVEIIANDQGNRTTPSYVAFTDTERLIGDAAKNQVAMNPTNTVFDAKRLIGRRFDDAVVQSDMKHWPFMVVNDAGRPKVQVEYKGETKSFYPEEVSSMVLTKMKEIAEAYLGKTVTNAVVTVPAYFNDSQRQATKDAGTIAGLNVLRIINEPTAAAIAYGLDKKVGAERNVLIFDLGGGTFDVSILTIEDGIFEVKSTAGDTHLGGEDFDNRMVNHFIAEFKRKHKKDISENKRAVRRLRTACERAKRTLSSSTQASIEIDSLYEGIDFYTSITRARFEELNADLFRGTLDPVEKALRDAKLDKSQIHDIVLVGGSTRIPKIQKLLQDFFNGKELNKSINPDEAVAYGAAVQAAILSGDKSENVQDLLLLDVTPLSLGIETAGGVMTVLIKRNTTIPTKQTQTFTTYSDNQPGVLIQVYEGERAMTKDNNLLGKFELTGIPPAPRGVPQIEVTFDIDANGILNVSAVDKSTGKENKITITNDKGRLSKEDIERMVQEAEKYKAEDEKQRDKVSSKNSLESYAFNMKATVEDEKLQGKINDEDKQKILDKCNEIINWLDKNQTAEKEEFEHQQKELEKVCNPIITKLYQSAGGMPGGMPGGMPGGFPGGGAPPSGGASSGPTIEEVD

Ka [1] | Kd [1] | Req (RU) [1] | kobs [1] | koff [1] | Ka [2] | Kd [2] | Req (RU) [2] | kobs [2] | koff [2] | Ka [3] | Kd [3] | Req (RU) [3] | kobs [3] | koff [3] | Ka [4] | Kd [4] | Req (RU) [4] | kobs [4] | koff [4] | Binder | other results
144000 M⁻¹ | 6.94 µM | 25.8 RU | 0.00452 s⁻¹ | 0.00312 s⁻¹ | 144000 M⁻¹ | 6.94 µM | 15.3 RU | 0.00382 s⁻¹ | 0.00312 s⁻¹ | 144000 M⁻¹ | 6.94 µM | 65.2 RU | 0.0144 s⁻¹ | 0.00312 s⁻¹ | 144000 M⁻¹ | 6.94 µM | 53.6 RU | 0.00874 s⁻¹ | 0.00312 s⁻¹ | RIHMVYSKR[pS]GKPRGYAFIEY [P140 peptide (peptide consisting of SEQ ID NO: 1, in which serine at position 10 is phosphorylated)] | Ka [5]: 144000 M⁻¹; Kd [5]: 6.94 µM; Req (RU) [5]: 39.5 RU; kobs [5]: 0.00593 s⁻¹; koff [5]: 0.00312 s⁻¹; kon [6]: 450 M⁻¹ s⁻¹
524000 M⁻¹ | 1.91 µM | 24.2 RU | 0.0058 s⁻¹ | 0.0022 s⁻¹ | 524000 M⁻¹ | 1.91 µM | 17.6 RU | 0.004 s⁻¹ | 0.0022 s⁻¹ | 524000 M⁻¹ | 1.91 µM | 36.3 RU | 0.031 s⁻¹ | 0.0022 s⁻¹ | 524000 M⁻¹ | 1.91 µM | 33.9 RU | 0.0166 s⁻¹ | 0.0022 s⁻¹ | RIH[Met(O)]VYSKR[pS]GKPRGYAFIEY | Ka [5]: 524000 M⁻¹; Kd [5]: 1.91 µM; Req (RU) [5]: 29.9 RU; kobs [5]: 0.0094 s⁻¹; koff [5]: 0.0022 s⁻¹; kon [6]: 1150 M⁻¹ s⁻¹
